B1: truncated version of the FG loop peptide, heptamer Ala 77-Lys 83 (peptide)
peptide: AENQQGK
B2: truncated version of the FG loop peptide, nonamer Val 76-Ser 84 (peptide)
peptide: VAENQQGKS

Target: FGF-receptor on dissociated neurons from embryonic rat hippocampus (rat)
Experiment: cell-based or functional assay

Binder | neurite outgrowth from hippocampal neurons, 50 µM peptide, relative to the entire FG loop peptide [%]
B1 | ~50
B2 | ~50
